Holding throughout (details): both partners purified
For experiment [1], the target named is T1, RBBP4 Glu126Ala/Asn128Ala/Glu179Ala (UniProt Q09028 1-425, Glu126Ala | Asn128Ala | Glu179Ala).
T1 construct: RBBP4 with the mutations Glu126Ala/Asn128Ala/Glu179Ala; parent is the wild-type RBBP4 of m1; also called RBBP4 E126A/N128A/E179A
Put plainly: ITC; AEBP2_(379–390) peptide titrated into RBBP4; one-site binding model, Origin 7. In general terms: ITC needs no label: the signal is the heat of the interaction.

The target of experiment [2] is T2, RBBP4, full-length, wild type (UniProt Q09028 1-425).
T2 construct: RBBP4 (also known as RbAp48), full-length; also called RbAp48; apo RBBP4
Described as above.

For a further experiment, the target named is T3, RBBP4 Glu231Ala (UniProt Q09028 1-425, Glu231Ala).
T3 construct: RBBP4 with the mutation Glu231Ala; parent is the wild-type RBBP4 of m1; also called RBBP4 E231A
Described as above.

Experiment [3] has as its target T2, RBBP4, full-length, wild type. Briefly: SEC; gel filtration on a Superdex 200 10/300 GL column; RBBP4 mixed with excess AEBP2 ZF-RRK, against apo RBBP4 and apo ZF-RRK; SDS-PAGE of the peaks. (Size exclusion chromatography separates by hydrodynamic size, large species first.)

T2 sequence (Q09028 whole entry): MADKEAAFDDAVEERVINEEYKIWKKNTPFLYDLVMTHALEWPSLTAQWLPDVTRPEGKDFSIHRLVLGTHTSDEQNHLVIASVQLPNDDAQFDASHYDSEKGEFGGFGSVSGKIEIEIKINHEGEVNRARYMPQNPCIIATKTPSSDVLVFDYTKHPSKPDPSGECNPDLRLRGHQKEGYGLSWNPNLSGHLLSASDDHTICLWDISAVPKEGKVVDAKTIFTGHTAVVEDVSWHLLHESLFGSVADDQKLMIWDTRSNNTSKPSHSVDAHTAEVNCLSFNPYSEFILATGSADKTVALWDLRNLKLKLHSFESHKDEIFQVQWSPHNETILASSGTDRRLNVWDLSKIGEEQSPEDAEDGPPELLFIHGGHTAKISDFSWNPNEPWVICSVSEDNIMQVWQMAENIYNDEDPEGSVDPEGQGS
T3 sequence (Q09028 whole entry E231A): as the sequence (Q09028 whole entry) above, with E231A counted along it
T1 sequence (Q09028 whole entry E126A/N128A/E179A): as the sequence (Q09028 whole entry) above, with E126A, N128A, E179A counted along it

B1: AEBP2_(379–390) peptide (RRK-rich motif, residues Lys379–Ser390) (peptide, UniProt Q6ZN18-1 379-390, looked up)
peptide: KRRKLKNKRRRS
notes: AEBP2, human, RRK-rich motif, residues Lys379–Ser390 of Uniprot entry Q6ZN18-1; source: synthetic peptide
Take B1: the “fold reduction of binding affinity against wild-type RBBP4” value in experiment [1] turned out to be 7 fold; in the experiment with RBBP4 Glu231Ala, 5 fold. Further, the dissociation constant Kd in experiment [2] amounted to 7.6 ± 0.6 µM. In experiment [2], this molecule registered a dH of -15.9 ± 0.395 kcal/mol.

B2: AEBP2 ZF-RRK (ZF1–3 and the RRK-rich motif, residues Asn258–Asp396) (domain or fragment, human, UniProt Q6ZN18-1 258-396, looked up)
chain: NIAYNCCWDQCQACFNSSPDLADHIRSIHVDGQRGGVFVCLWKGCKVYNTPSTSQSWLQRHMLTHSGDKPFKCVVGGCNASFASQGGLARHVPTHFSQQNSSKVSSQPKAKEESPSKAGMNKRRKLKNKRRRSLPRPHD
notes: AEBP2, human, residues Asn258–Asp396 (numbering as for Uniprot entry Q6ZN18-1); also called apo AEBP2 ZF-RRK; source: recombinant protein
B2: the binding result in experiment [3] is given as “binds”.

B3: AEBP2_(379–390) peptide with mutations Arg380Ala/Lys382Ala (peptide, UniProt Q6ZN18-1 379-390, looked up)
peptide: KARALKNKRRRS
notes: AEBP2, human, residues Lys379–Ser390 of Uniprot entry Q6ZN18-1 with Arg380Ala/Lys382Ala
For the molecule B3, the “fold reduction of binding affinity against the wild-type peptide” value in experiment [2] was around 20 fold.

As a reminder, the Kd is the concentration at which binding is half-saturated. The low end stands for higher affinity, the high end for lower affinity.

(Values after article PMC6053351, “Structural and biochemical insights into human zinc finger protein AEBP2 reveals interactions with RBBP4” (Protein & Cell, 2017).)
